# Data from patent US8030043B2, “β-galactoside-α2,3-sialyltransferase, a gene encoding thereof, and a method for producing thereof” (Japan Tobacco Inc., priority 2005, dated 2011).
# B1: FAJ-N1C0 first clone: JT-FAJ-16 sialyltransferase lacking signal peptide region, nucleotides 67 to 1209 of SEQ ID NO: 30 (protein, listed as Vibrio sp.)
# chain: MKNIITKRMLIILSSLFTIIGCNNDNSTTTNNNAIEIYVDRATLPTIQQMTKIVSQKTSNKKLISWSRYPITDKSLLKKINAEFFKEQFELTESLKNIILSENIDNLIIHGNTLWSIDVVDIIKEVNLLGKNIPIELHFYDDGSAEYVRIYEFSKLPESEQKYKTSLSKNNIKFSIDGTDSFKNTIENIYGFSQLYPTTYHMLRADIFDTTLKINPLRELLSNNIKQMKWDYFKDFNYKQKDIFYSLTNFNPKEIQEDFNKNSNKNFIFIGSNSATATAEEQINIISEAKKENSSIITNSISDYDLFFKGHPSATFNEQIINAHDMIEINNKIPFEALIMTGILPDAVGGMGSSVFFSIPKEVKNKFVFYKSGTDIENNSLIQVMLKLNLINRDNIKLISDI
# modifications: CDS (1)..(1209) /gene=“FAJ16-23ST” /product=“Beta-galactoside- alpha 2,3-sialyltransferase”
# B2: ISH224-N1C0 first clone: JT-ISH-224 sialyltransferase lacking signal peptide region, nucleotides 73 to 1230 of SEQ ID NO: 28 (protein, listed as Photobacterium sp.)
# chain: MLVFCKKMFFSVFISLMILGGCNSDSNHNNSDGNITKNKTIEVYVDRATLPTIQQMTQIINENSNNKKLISWSRYPINDEELLESINGSFFKNNSELIKSLDSMILTNDIKKVIINGNTLWAADVVNIIKSIEAFGKKTEIELNFYDDGSAEYVRLYDFSKLPESEQEYKISLSKDNILSSINGTQPFENVVENIYGFSQLYPTTYHMLRADIFETNLPLRSLKGVLSNNIKQMKWDYFKTFNSQQKDKFYNFTGFNPDEIMEQYKASPNKNFIFVGTNSGTATAEQQIDILTEAKNPNSPIITKSIQGFDLFFKGHPSATYNKQIIDAHNMIEIYNKIPFEALIMTDALPDAVGGMGSSVFFSLPNTVENKFIFYKSDTDIENNALIQVMIELNIVNRNDVKLISDLQ
# modifications: CDS (1)..(1230) /gene=“224-23ST” /product=“Beta-galactoside-alpha-2,3-sialyltransferase”
# B3: ISH467-N2C0 third clone: JT-ISH-467 sialyltransferase lacking signal peptide region, nucleotides 73 to 1230 of SEQ ID NO: 1, no mutation (protein, listed as Photobacterium phosphoreum)
# chain: MFVFCKKIFFLIFISLMILGGCNSDSKHNNSDGNITKNKTIEVYVDRATLPTIQQMTQIINENSNNKKLISWSRYPINDETLLESINGSFFKNRPELIKSLDSMILTNEIKKVIINGNTLWAVDVVNIIKSIEALGKKTEIELNFYDDGSAEYVRLYDFSRLPESEQEYKISLSKDNIQSSINGTQPFDNSIENIYGFSQLYPTTYHMLRADIFETNLPLTSLKRVISNNIKQMKWDYFTTFNSQQKNKFYNFTGFNPEKIKEQYKASPHENFIFIGTNSGTATAEQQIDILTEAKKPDSPIITNSIQGLDLFFKGHPSATYNQQIIDAHNMIEIYNKIPFEALIMTDALPDAVGGMGSSVFFSLPNTVENKFIFYKSDTDIENNALIQVMIELNIVNRNDVKLISDLQ
# modifications: CDS (1)..(1230) /gene=“467-23ST” /product=“Beta-galactoside- alpha 2,3-sialyltransferase”
# Test: Confirmation of α2,3 sialyltransferase activity of E. coli-expressed enzyme with pyridylaminated lactose, HPLC
# Type: biochemical
# Details: pyridylaminated lactose 2.0 μM, CMP-sialic acid 5.7 μM, pH 6.0, 25° C., 6 hours
# Procedure: Using the enzyme obtained in Example 2, the enzymatic reaction was carried out using a pyridylaminated sugar chain as a glycosyl acceptor substrate. The pyridylaminated sugar chain used for analysis was pyridylaminated lactose (Galβ1-4Glc-PA, Takara Bio Inc., Japan). The glycosyl acceptor substrate, CMP-NeuAc and the enzyme were dissolved at 2.0 μM, 5.7 μM and 20 mU/ml, respectively, in 25 μl of 20 mM cacodylate buffer (pH 6.0), and then reacted at 25° C. for 3 hours. After the reaction, the reaction solution was treated at 100° C. for 2 minutes to inactivate the enzyme, followed by HPLC to analyze the reaction product.
# The HPLC system used was Shimadzu LC10A (Shimadzu Corporation, Japan) and the analytical column used was Takara PALPAK Type R (Takara Bio Inc., Japan). The column which had been equilibrated with 100 mM acetate-triethylamine (pH 5.0) containing 0.15% N-butanol was injected with the reaction solution diluted with Eluent A (100 mM acetate-triethylamine, pH 5.0). For elution of the pyridylaminated sugar chain, Eluent A (100 mM acetate-triethylamine, pH 5.0) and Eluent B (100 mM acetate-triethylamine containing 0.5% n-butanol, pH 5.0) were used to successively elute the pyridylaminated sugar chain with a linear gradient of 30% to 100% Eluent B (0 to 35 minutes) and then 100% Eluent B (35 to 50 minutes). The analysis was performed under the following conditions: flow rate: 1 ml/min, column temperature: 40° C., detection: fluorescence (Ex: 320 nm, Em: 400 nm).
# As in the case of Example 3, pyridylaminated lactose (Galβ1-4Glc-PA, PA-Sugar Chain 026, Takara Bio Inc., Japan) was used as a glycosyl acceptor to carry out the enzymatic reaction. After the reaction, the reaction solution was heated at 95° C. for 5 minutes to inactivate the enzyme, followed by HPLC analysis. It should be noted that the enzymatic reaction was accomplished at 25° C. for 6 hours using pyridylaminated lactose and CMP-sialic acid dissolved at 2.0 μM and 5.7 μM, respectively, in 25 μl of 20 mM cacodylate buffer (pH 6.0) (Reaction 1). On the other hand, a control experiment (Reaction 2) was carried out using a reaction solution free from CMP-sialic acid. Further, to clarify the retention time of standards, the crude enzyme solution was inactivated by thermal treatment (95° C., 5 minutes) and tested in the presence of pyridylaminated lactose and pyridylaminated α2,3-sialyllactose (pyridylaminated 3′-sialyllactose) (Neu5Acα2-3Galβ1-4Glc-PA, PA-Sugar Chain 029, Takara Bio Inc., Japan).
row,Molecule,"α2,3 sialyltransferase activity (formation of pyridylaminated α2,3-sialyllactose)"
1,B1,"a peak of pyridylaminated α2,3-sialyllactose (pyridylaminated 3′-sialyllactose) was detected"
2,B2,"a peak of pyridylaminated α2,3-sialyllactose (pyridylaminated 3′-sialyllactose) was detected"
3,B3,"found to have α2,3 sialyltransferase activity"
